In one test the target is T1, recombinant mouse TL1A (mouse, UniProt Q5UBV8 75-252).
T1 construct: biotinylated for SPR capture
T1 chain: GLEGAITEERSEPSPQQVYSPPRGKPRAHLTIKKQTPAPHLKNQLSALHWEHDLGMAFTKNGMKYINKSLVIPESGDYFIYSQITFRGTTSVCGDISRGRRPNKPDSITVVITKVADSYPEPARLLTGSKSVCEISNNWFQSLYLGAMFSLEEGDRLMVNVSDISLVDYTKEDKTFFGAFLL
Put plainly: SPR, antibody injected over captured biotinylated TL1A, 37° C. Here is the method: (§1) For these analyses, kinetic assays were conducted at 37° C. using a collection rate of 10 Hz on a Biacore™ T200 instrument (GE Healthcare). […] The association phase was 90 seconds, and the dissociation phases were 1600 seconds over human, cynomolgus monkey and rabbit TL1A and 180 seconds for mouse and rat TL1A.
(§2) In order to determine binding to TL1A, kinetic assays were conducted at 37° C. using a collection rate of 10 Hz on a Biacore™ T200 instrument (GE Healthcare).

The target of another test is T2, recombinant rat TL1A (rat, UniProt Q8K3Y7 76-252).
T2 construct: biotinylated for SPR capture
T2 sequence: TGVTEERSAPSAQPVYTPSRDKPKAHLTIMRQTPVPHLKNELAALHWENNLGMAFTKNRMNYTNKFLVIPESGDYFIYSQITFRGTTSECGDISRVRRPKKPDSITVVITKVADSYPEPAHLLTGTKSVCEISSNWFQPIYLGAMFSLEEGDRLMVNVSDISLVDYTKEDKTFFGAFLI
The description is as above. The protocol:
as §1, §2

The target of another test is T3, human IL-12 (human, UniProt P29460 23-328; P29459 23-219).
T3 sequence 1: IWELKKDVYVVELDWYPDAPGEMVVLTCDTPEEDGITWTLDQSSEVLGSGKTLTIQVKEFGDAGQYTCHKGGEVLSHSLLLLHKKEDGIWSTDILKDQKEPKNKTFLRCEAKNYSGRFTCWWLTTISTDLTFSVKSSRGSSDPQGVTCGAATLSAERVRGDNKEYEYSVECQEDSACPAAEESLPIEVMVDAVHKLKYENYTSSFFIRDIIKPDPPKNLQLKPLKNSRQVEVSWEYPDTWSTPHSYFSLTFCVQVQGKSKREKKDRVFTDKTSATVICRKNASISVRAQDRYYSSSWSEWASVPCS
T3 sequence 2: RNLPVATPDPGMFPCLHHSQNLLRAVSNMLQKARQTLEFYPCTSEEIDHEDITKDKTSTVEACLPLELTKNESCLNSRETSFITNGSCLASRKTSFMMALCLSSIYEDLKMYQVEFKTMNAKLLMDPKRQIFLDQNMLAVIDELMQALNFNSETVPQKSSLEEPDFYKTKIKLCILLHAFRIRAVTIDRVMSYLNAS
Put plainly: cell-based or functional assay.

Another test concerns the target T4, cynomolgus monkey IL-12 (cynomolgus monkey).
T4 chain 1: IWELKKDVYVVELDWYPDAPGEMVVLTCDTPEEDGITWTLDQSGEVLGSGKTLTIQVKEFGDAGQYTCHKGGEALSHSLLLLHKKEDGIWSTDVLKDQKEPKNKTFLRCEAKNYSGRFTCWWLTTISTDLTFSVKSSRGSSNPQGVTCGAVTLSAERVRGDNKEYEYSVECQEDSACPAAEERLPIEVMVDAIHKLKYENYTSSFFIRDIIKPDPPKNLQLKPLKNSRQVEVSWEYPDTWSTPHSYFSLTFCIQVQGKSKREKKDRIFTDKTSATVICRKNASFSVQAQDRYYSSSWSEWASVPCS
T4 chain 2: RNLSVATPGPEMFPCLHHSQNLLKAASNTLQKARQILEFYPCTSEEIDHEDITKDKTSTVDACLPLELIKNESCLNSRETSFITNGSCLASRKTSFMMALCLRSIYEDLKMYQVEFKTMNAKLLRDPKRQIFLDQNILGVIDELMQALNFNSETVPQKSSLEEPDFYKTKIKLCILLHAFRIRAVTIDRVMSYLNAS
Put plainly: cell-based or functional assay.

The target of a further test is T5, human IL-23 (human, UniProt P29460 23-328; Q9NPF7 20-189).
T5 sequence 1: T3 sequence 1
T5 sequence 2: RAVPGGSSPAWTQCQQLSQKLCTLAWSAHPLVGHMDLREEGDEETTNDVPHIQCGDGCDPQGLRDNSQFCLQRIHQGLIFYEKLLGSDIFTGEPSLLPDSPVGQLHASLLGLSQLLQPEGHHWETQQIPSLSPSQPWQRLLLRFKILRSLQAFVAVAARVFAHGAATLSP
Description: cell-based or functional assay.

Another test has as its target T6, cynomolgus monkey IL-23 (cynomolgus monkey, limits assumed).
T6 chain 1: T4 chain 1
T6 chain 2: T5 sequence 2 with T12A, H75R, L131P
Put plainly: cell-based or functional assay.

The target of another test is T7, mouse IL-12 (mouse, UniProt P43432 23-335; P43431 23-215).
T7 sequence 1: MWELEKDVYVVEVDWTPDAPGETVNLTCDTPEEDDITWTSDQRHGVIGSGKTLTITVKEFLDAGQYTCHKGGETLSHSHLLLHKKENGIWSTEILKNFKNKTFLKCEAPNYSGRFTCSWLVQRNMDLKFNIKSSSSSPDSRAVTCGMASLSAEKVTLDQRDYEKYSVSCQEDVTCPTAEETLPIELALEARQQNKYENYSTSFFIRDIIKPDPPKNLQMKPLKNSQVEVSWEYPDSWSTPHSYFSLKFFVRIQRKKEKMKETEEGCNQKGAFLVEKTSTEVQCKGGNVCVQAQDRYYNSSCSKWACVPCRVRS
T7 sequence 2: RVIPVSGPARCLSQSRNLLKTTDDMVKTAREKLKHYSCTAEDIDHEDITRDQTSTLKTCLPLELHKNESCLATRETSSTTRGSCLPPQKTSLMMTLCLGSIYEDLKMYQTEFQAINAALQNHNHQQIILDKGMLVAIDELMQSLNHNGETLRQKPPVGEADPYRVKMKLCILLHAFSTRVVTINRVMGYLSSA
Put plainly: SPR, Biacore 8K+, 37 C; antibody captured by anti-human Fc, cytokine injected. Here is the method: In order to determine binding to TL1A, kinetic assays were conducted at 37° C. using a collection rate of 10 Hz on a Biacore™ T200 instrument (GE Healthcare). […] For the analysis of the p40 binding arm, kinetic assays were conducted at 37° C. using a collection rate of 10 Hz on a Biacore™ 8 K+ instrument (GE Healthcare).

Where a chain is given by its changes, count along the chain named.

B1: p40TL1A-0033 (bispecific antibody, human IgG1, kappa)
chain 1: not shown
chain 2: QVQLVQSGAEVKKPGASVKVSCKASGYDYTYYGISWVRQAPGQGLEWMGWISTYNTGTHYAPSLQGRVTMTTDTSTSTAYMELRSLRSDDTAVYYCARESYYGSGAFRGGMDVWGQGTTVTVSSASTKGPSVFPLAPSSKSTSGGTAALGCLVKDYFPEPVTVSWNSGALTSGVHTFPAVLQSSGLYSLSSVVTVPSSSLGTQTYICNVNHKPSNTKVDKKVEPKSC
heavy: EVQLVQSGAEVKKPGESLKISCKGSGYSFTTYWLGWVRQMPGKGLDWIGIMSPVDSDIRYSPSFQGQVTMSVDKSITTAYLQWNSLKASDTAMYYCARRRPGQGYFDFWGQGTLVTVSSASTKGPSVFPLAPSSKSTSGGTAALGCLVKDYFPEPVTVSWNSGALTSGVHTFPAVLQSSGLYSLSSVVTVPSSSLGTQTYICNVNHKPSNTKVDKKVEPKSCDKTHTCPPCPAPEAAGAPSVFLFPPKPKDTLMISRTPEVTCVVVDVSHEDPEVKFNWYVDGVEVHNAKTKPREEQYNSTYRVVSVLTVLHQDWLNGKEYKCKVSNKALPAPIEKTISKAKGQPREPQVCTLPPSREEMTKNQVSLWCLVKGFYPSDIAVEWESNGQPENNYKTTPPVLDSDGSFFLYSKLTVDKSRWQQGNVFSCSVLHEALHSHYTQKSLSLSPGK
light: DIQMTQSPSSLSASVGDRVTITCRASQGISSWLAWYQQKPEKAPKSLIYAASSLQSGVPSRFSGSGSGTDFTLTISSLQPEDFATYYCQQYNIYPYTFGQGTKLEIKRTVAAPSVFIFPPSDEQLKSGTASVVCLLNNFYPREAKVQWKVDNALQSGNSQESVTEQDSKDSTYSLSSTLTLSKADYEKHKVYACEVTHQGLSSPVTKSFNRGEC
notes: KiH modified-Fd bispecific: TL1A VL-CL-Fc (hole), TL1A mFd, p40 HC (knob), p40 LC; LS
Turning to B1, the binding result in the test with recombinant mouse TL1A and with recombinant rat TL1A was “binds” each time.

B2: p40TL1A-0033 bispecific antibody (bispecific antibody, human IgG1, kappa)
heavy: B1 heavy
light: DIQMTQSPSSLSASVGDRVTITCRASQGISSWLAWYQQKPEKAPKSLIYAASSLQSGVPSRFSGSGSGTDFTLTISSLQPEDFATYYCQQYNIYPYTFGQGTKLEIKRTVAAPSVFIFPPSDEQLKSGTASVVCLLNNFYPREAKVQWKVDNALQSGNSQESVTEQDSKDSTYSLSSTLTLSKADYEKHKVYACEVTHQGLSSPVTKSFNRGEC
chain 1: not shown
chain 2: B1 chain 2
notes: Single cell KiH, modified Fd format; IgG1 effector-function-minimized Fc with LS mutations
In the case of B2, the “KIT-225 STAT4 phosphorylation, Human IL-12 IC50” value in the test with human IL-12 was found to be 1.11 nM. The “KIT-225 STAT4 phosphorylation, Cynomolgus Monkey IL-12 IC50” value in the test with cynomolgus monkey IL-12 came out at 0.95 nM. The “KIT-225 STAT3 phosphorylation, Human IL-23 IC50” value in the test with human IL-23 came to 3.73 nM. Besides, the “KIT-225 STAT3 phosphorylation, Cynomolgus Monkey IL-23 IC50” value with cynomolgus monkey IL-23 is 4.34 nM. Further, in the test with mouse IL-12, the binding result is given as “no binding (tested: 200 nM)”.

Source of the values: patent US20240059799A1 (Pfizer, published 2024).
